According to the FLAb antibody collection:
Numbering of substitutions follows the chain as printed.

B1: unnamed (protein)
chain 1: QVQLVESGGGLVKPGGSLRLSCAASGFTFSDYYMNWIRQAPGKGLEWVSYISSSGSIIYYADSVKGRFTISRDNAKNSLYLQMNSLRAEDTAVYYCAREGRIAARGMDVWGQGTTVTVSS
chain 2: DIQMTQSPSSLSASVGDRVSITCRPSQSFSRYINWYQQKPGKAPKLLIHAASSLVGGVPSRFSGSGSGTDFTLTISSLQPEDFATYYCQQTYSNPPITFGQGTRLEMK
B2: unnamed (protein)
chain 1: QVQLVQSGAEVKKPGASVKVSCKASGYTFTNYGLSWVRQAPGQGLEWMGWISANNGDTNYGQEFQGRVTMTTDTSTSTAYMELRSLRSDDTAVYYCARDSSSSWARWFFDLWGRGTLVTVSS
chain 2: SYVLTQPPSVSVAPGKTARITCGGNIIGSKLVHWYQQKPGQAPVLVIYDDGDRPSGIPERFSGSNSGNTATLTISRVEAGDEADYYCQVWDTGSDPVVFGGGTKLTVL
B3: unnamed (protein)
chain 1: QVELVESGGGLVQPGGSLRLSCAASGFTFTSYWMSWVRQAPGKGLELVSSITSYGSFTYYADSVKGRFTISRDNSKNTLYLQMNSLRAEDTAVYYCARNMYTHFDSWGQGTLVTVSS
chain 2: DIVLTQPPSVSGAPGQRVTISCSGSSSNIGSNSVSWYQQLPGTAPKLLIYDNSKRPSGVPDRFSGSKSGTSASLAITGLQSEDEADYYCQSRDTYGYYWVFGGGTKLTVL
B4: unnamed (protein)
chain 1: QVQLVQSGAEVKKPGASVKVSCKGSGYTFTSYWMHWVRQAPGQRLEWIGEIDPSESNTNYNQKFKGRVTLTVDISASTAYMELSSLRSEDTAVYYCARGGYDGWDYAIDYWGQGTLVTVSS
chain 2: DVVMTQSPLSLPVTPGEPASISCRSSQSLAKSYGNTYLSWYLQKPGQSPQLLIYGISNRFSGVPDRFSGSGSGTDFTLKISRVEAEDVGVYYCLQGTHQPYTFGQGTKVEIK
B5: unnamed (protein)
chain 1: QVKLQESGAELARPGASVKLSCKASGYTFTNYWMQWVKQRPGQGLDWIGAIYPGDGNTRYTHKFKGKATLTADKSSSTAYMQLSSLASEDSGVYYCARGEGNYAWFAYWGQGTTVTVSS
chain 2: DIELTQSPASLSASVGETVTITCQASENIYSYLAWHQQKQGKSPQLLVYNAKTLAGGVSSRFSGSGSGTHFSLKIKSLQPEDFGIYYCQHHYGILPTFGGGTKLEIK
B6: unnamed (protein)
chain 1: QVQLQESGPGLVKPSETLSLTCTVSGFSLTNYGIHWIRQPPGKGLEWLGVIWARGFTNYNSALMSRLTISKDNSKNQVSLKLSSVTAADTAVYYCARANDGVYYAMDYWGQGTLVTVSS
chain 2: DFVMTQSPAFLSVTPGEKVTITCSAQSSVNYIHWYQQKPDQAPKKLIYDTSKLASGVPSRFSGSGSGTDYTFTISSLEAEDAATYYCQQWTTNPLTFGQGTKVEIK
B7: unnamed (protein)
chain 1: QAYLQQSGAELVRPGASVKMSCKASGYTFTSYNMHWVKQTPRQGLEWIGAIYPGNGDTSYNQKFKGKATLTVDKSSSTAYMQLSSLTSEDSAVYFCARVVYYSNSYWYFDVWGTGTTVTVSG
chain 2: QIVLSQSPAILSASPGEKVTMTCRASSSVSYMHWYQQKPGSSPKPWIYAPSNLASGVPARFSGSGSGTSYSLTISRVEAEDAATYYCQQWSFNPPTFGAGTKLELK
B8: unnamed (protein)
chain 1: QAYLQQSGAELVRPGASVKMSCKASGYTFTSYNMHWVKQTPRQGLEWIGGIYPGNGDTSYNQKFKGKATLTVGKSSSTAYMQLSSLTSEDSAVYFCARYDYNYAMDYWGQGTSVTVSS
chain 2: B7 chain 2 with P50T, L72F, S91T, A99G, K102R, L105I
B9: unnamed (protein)
chain 1: QVQLQQSGAEVKKPGSSVRVSCKASGGTFNNNAINWVRQAPGQGLEWMGGIIPMFGTAKYSQNFQGRVAITADESTGTASMELSSLRSEDTAVYYCARSRDLLLFPHHALSPWGRGTMVTVSS
chain 2: SSELTQDPAVSVALGQTVRVTCQGDSLRSYYASWYQQKPGQAPVLVIYGKNNRPSGIPDRFSGSSSGNTASLTITGAQAEDEADYYCSSRDSSGNHWVFGGGTELTVL
B10: unnamed (protein)
chain 1: QVQLVESGGGVVQPGRSLRLSCAASGFTFSTYGMHWVRQAPGKGLEWVAVIWDDGSYKYYGDSVKGRFTISRDNSKNTLYLQMNSLRAEDTAVYYCARDGITMVRGVMKDYFDYWGQGTLVTVSS
chain 2: AIQLTQSPSSLSASVGDRVTITCRASQDISSALVWYQQKPGKAPKLLIYDASSLESGVPSRFSGSESGTDFTLTISSLQPEDFATYYCQQFNSYPLTFGGGTKVEIK
B11: unnamed (protein)
chain 1: EVQLQQSGPELVKPGASVKMSCKASGYTFTSYVVHWVKQNPGQGLEWIGYINPFNDGTKYNENFKGKATLTSDRSSSTAYMELSSLTSEESAVYFCARDMGREGFAYWGQGTLVTVSA
chain 2: DIVMTQAAFSNPVTLGTSASISCRSSKSLLHSNGITYLYWYLQKPGQSPQLLIYQMSNLASGVPDRFSSSGSGTDFTLRISRVEAEDVGVYYCAQNLELPRTFGGGTKLEI
B12: unnamed (protein)
chain 1: EVQMVQSGAEVKKPGEPLKISCKGSGYKFGTHWIGWVRQRPGKGLEWMGIIHPADSETKYSPSFQGQVSFSADKSSNTAYLHWSTLRASDTAMYYCARRSGSSSWYALDFWGQGTMVTVSS
chain 2: QSVLTQSPSASGTPGQRVTISCSGGSSNIGSNTVNWYQQFPGAAPKLLIYTNNQRPSGVPDRFSGSKSGTSASLAISGLQSEDEADYYCATWDDSLNGLYVFGTGTKVTVL
B13: unnamed (protein)
chain 1: EVQLVQSGAEVKKPGESLKISCKGSGYSFTTYWLGWVRQMPGKGLDWIGIMSPVDSDIRYSPSFQGQVTMSVDKSITTAYLQWNSLKASDTAMYYCARRRPGQGYFDFWGQGTLVTVSS
chain 2: DIQMTQSPSSLSASVGDRVTITCRASQGISSWLAWYQQKPEKAPKSLIYAASSLQSGVPSRFSGSGSGTDFTLTISSLQPEDFATYYCQQYNIYPYTFGQGTKLEIK
B14: unnamed (protein)
chain 1: QVQLVESGGGVVQPGRSLRLSCAASGFTFSSYDMHWVRQAPGKGLEWVAVIWYDGSNKYYADSVKGRFTISRDNSKNTLYLQMNSLRAEDTAVYYCARGSGNWGFFDYWGQGTLVTVSS
chain 2: B13 chain 2 with S31R, I93T, Y96R, L104V
B15: unnamed (protein)
chain 1: EVQLVQSGAEVKKPGASVKVSCKASGYTFTSYVIHWVRQRPGQGLAWMGYINPYNDGTKYNERFKGKVTITSDRSTSTVYMELSSLRSEDTAVYLCGREGIRYYGLLGDYWGQGTLVTVSS
chain 2: DIQMTQSPSSLSASVGDRVTITCGTSEDIINYLNWYQQKPGKAPKLLIYHTSRLQSGVPSRFSGSGSGTDFTLTISSLQPEDFATYYCQQGYTLPYTFGQGTKVEIK
B16: unnamed (protein)
chain 1: QGQLVQSGAEVKKPGASVKVSCKASGYTFTDYEMHWVRQAPIHGLEWIGVIESETGGTAYNQKFKGRVTITADKSTSTAYMELSSLRSEDTAVYYCAREGITTVATTYYWYFDVWGQGTTVTVSS
chain 2: DVVMTQSPLSLPVTLGQPASISCRSSQSIVHSNGNTYLEWYLQKPGQSPQLLIYKVSNRFSGVPDRFSGSGSGTDFTLKISRVEAEDVGVYYCFQGSHVPLTFGQGTKLEIK
B17: unnamed (protein)
chain 1: QVQLQQSGAEVKKPGSSVKVSCKASGYTFTSYNMHWVKQAPGQGLEWIGAIYPGMGDTSYNQKFKGKATLTADESTNTAYMELSSLRSEDTAFYYCARSTYYGGDWYFDVWGQGTTVTVSS
chain 2: DIQLTQSPSSLSASVGDRVTMTCRASSSVSYIHWFQQKPGKAPKPWIYATSNLASGVPVRFSGSGSGTDYTFTISSLQPEDIATYYCQQWTSNPPTFGGGTKLEIK
B18: unnamed (protein)
chain 1: EVQLVQSGAEVKKPGESLRISCKGSGYSFSTYWISWVRQMPGKGLEWMGKIYPGDSYTNYSPSFQGQVTISADKSISTAYLQWSSLKASDTAMYYCARGYGIFDYWGQGTLVTVSS
chain 2: SYELTQPPSVSVSPGQTASITCSGDNIGDQYAHWYQQKPGQSPVLVIYQDKNRPSGIPERFSGSNSGNTATLTISGTQAMDEADYYCATYTGFGSLAVFGGGTKLTVL
B19: unnamed (protein)
chain 1: QVQLQQPGAELVRPGASVKLSCKASGYTFTSYWINWVKQRPGQGLEWIGNIYPSDSYTNYNQKFKDKATLTVDKSSSTAYMQLSSPTSEDSAVYYCTRSWRGNSFDYWGQGTTLTVSS
chain 2: DIVMTQSPSSLTVTAGEKVTMSCKSSQSLLNSGNQKNYLTWYQQKPGQPPKLLIYWASTRESGVPDRFTGSGSGTDFTLTISSVQAEDLAVYYCQNDYSYPFTFGSGTKLEIK

Assay: patients with anti-drug antibodies; higher = more immunogenic
With B1 the “patients with anti-drug antibodies” value was 2.9%. For B2, the “patients with anti-drug antibodies” value was 0.5%. In the case of B3, the “patients with anti-drug antibodies” value is reported as 2.3%. In the case of B4, the “patients with anti-drug antibodies” value is reported as 9.5%. In the case of B5, the “patients with anti-drug antibodies” value is reported as 68.1%. For B6, the “patients with anti-drug antibodies” value was 2.6%. With B7 the “patients with anti-drug antibodies” value was 45.5%. In the case of B8, the “patients with anti-drug antibodies” value is reported as 0%. For B9, the “patients with anti-drug antibodies” value was 2.4%. With B10 the “patients with anti-drug antibodies” value was 0%. With B11 the “patients with anti-drug antibodies” value was 100%. For B12, the “patients with anti-drug antibodies” value was 2.1%. In the case of B13, the “patients with anti-drug antibodies” value is reported as 4%. For B14, the “patients with anti-drug antibodies” value was 0%. For B15, the “patients with anti-drug antibodies” value was 13%. For B16, the “patients with anti-drug antibodies” value was 1%. With B17 the “patients with anti-drug antibodies” value was 19.5%. For B18, the “patients with anti-drug antibodies” value was 40.7%. In the case of B19, the “patients with anti-drug antibodies” value is reported as 0%.
